Results: the supplement of paper PMC9170038

System: K4 kissing-loop RNA reporter
Test: apparent KD of K4 kissing-loop reporter; higher = weaker reporter binding
Settings: Eterna round: R107; input ligand: arginine 13.2 mM
Description: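 RNA-MaP round R107: designed RNA switches with theophylline, tryptophan, arginine or FMN aptamers are transcribed on-chip within common flanks. They are titrated with a labelled K4 kissing-loop RNA reporter in RNA-MaP buffer (100 mM Tris pH 7.5, 80 mM KCl, 4 mM MgCl2), without ligand or with the indicated ligand. Median apparent KD per design.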
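Note: bound reporter read as fluorescence of individual clusters on recovered sequencing chips by microscopy, with normalized cluster intensities fitted with a binding model.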

Sequence	apparent KD of K4 kissing-loop reporter [nM]
UCUGUUGUAUAUGAUACCAGCAGUGAGAGACAGGAAGUAUAGUGAUGUUAUAUGAGAGAAUGCCCUUGGCAGCGUGUGCGGGUGG [SSTheophylB.X]	130
GUACGCUCUCGAGUGAUGUUCGGUAAUCGCUAGGAUAUCGCUUUUGCGAGAAGGAGCGGAAUGAGGAAACUCGUUCUGAGUGUAC [FMN A 22]	295
AAGAAGAAUGGAAGGAGCGAGCAGAUAUAACCAGUGAUGUUGGAAAGCCUUAUUGCUUAAGCUCAGGUAGGUCGCCAAGAAAAGA [whbob_Ex_Arginine_B_2t151]	153
AGUCCACUCUAAAGAGUGGACCUAAGGGAUACCAGUGAUGUUGGUCACCCUUGGCAGCCCUCUGUCAUCGAUAAAGAUGGCAGAA	110
UACUUUAAUUUAUAACUAUCUUUAUUUUGUCAGGAUAUCGUAUUGUCGAGAAGGGACUCUCUCAAGUGAUGUUUGAGAAAUCGUU [JR_SSFMNA_Sub024]	125
AAGUGUUCUAGUGAUACCAGACAUUUCUAUUUUAUCUUUAUAGCUAAGUGAUGUUUAGCAGUCCCUUGGCAGCACUAUUUCACUA [JR_SSTheophyB_Sub017]	155
AAGGUGAUCCUCGAUACCAGCUCAAAAUGAGUGAUGUUCAUGAAAGCCUGGAAACAGGCGAGCCCUUGGCAGCGAGUUACAUCAA [KL-SSTheoB8]	162
AAGACUUGCAUCGAUACCAGCCCAGUGAUGUUGGGCUGCUCUCCAUGGGUGCCAGACACGGGCCCUUGGCAGCGAGGUAAGGCCC [Soveri]	110
AGACUUCACCGAAGGAGCGACGUGGCCUAGUGAUGUUAGGUACGAGAGAAAUCUCGUAUACGUCAGGUAGGUCGCGGUGAAGUCA [Omei KL Arginine B SS C v8]	643
AACUUAAUUUAUAAGCAGUGAUGUUGCUCACGAGGACCGGUACGGCCGCCACUCGAUCGGACUUAGGUCUUCAAUUAUUUCUUAA [JR_ExcTryptoA_Sub018]	157
AGUGAUAUAUGAGGAUAUGGGUUUGUUAAUGAGUUUGUUUUAGUGUUGUUUGGUUAGUGAUGUUAUUUAGAAGGCGUGAGUGAUG [vxxexmullin]	80.5
UACAGGGAUAGUGAUGUUAUCCCAUGUGAUACCAGUGUCAUCCAACACCCUUGGCAGCAUACGGGCAGUGAUGUUGUUCUUGGUA [#17 K4 Theophylline A Exclusion]	75.4
UGUACCGAGUCAGGAUAUCAUAAUAAUCGAGUGAUGUUCGAAUAACGACUGACAAAGUCGGUCGAUUGAGAAGGGACUUGGUACU [FmnBS 7 #SwitchBubble #StaticStem]	342
UGUCGAGUGAUGUUCGAUGUGGUGCAUUCAGAGGAUAUAGGGUGGGCUAGAAGGCUGAAAAGUGCUUCGAGUGAUGUUCGAAGAU [Exclusion FMN A GF8]	117
GCGCGGCUCAGUGAUGUUGAGCCUCGGAAACGAGGACCGGUACGGCCGCCACUCGUCCGCGCAGCUGAGGCAAAAGCCUCGGCUA [Omei KL Tryp A SS B v2]	310
CAAAUAUGCGGUAGGUUCAAGCGCUGGGAAGGAGCGCAGAUGACUGCAGGUAGGUCGCCCAGUGAUGUUGGGCUUUCCACCUAUG [Esisusa]	109
AAAUACAUUUUAUUAUAUAACUUUUCAGAAGGAGCGUGGAAGUUCACAGGUAGGUCGCUGAAUAUUGGACUAGUGAUGUUAGUUA [JR_Nu_SSArginiA_Sub021]	217
GGAUCCACCAGUGAUGUUGGAGAAAACUCCGAGGAUAUGACGAAAGUCAGAAGGUGGUAGACUGGACAAAGUCCGGUCGGAUCCA [FmnA 24 #SwitchBubble #K4Early]	83.3
GUACCAGUGAUGUUGGUAGGCGAGCGGGAUACCAGCCAAGACUCAGGCCCUUGGCAGCCCACAUAUCCCACGUAGGUAGUAGCUC [Same State - Theophylline A (Freestyle 17)]	103
UGACUGGACUGAAGGAGCGCGAAAACUCCUAGUGAUGUUAGGAAAACGAGACAAAGUCUCGCGCAGGUAGGUCGCAGUCUAGUCU [ArgBS 20 #SwitchBubble #StaticStem]	102
UAAGAAUAAGUAGCAGUGAUGUUGCUACUACGAGGACCGGUACGGCCGCCACUCGAAUACGAGUGGAAGUAGCAACUACCACUCA [(H1)-(H2)-(Trp1)-(Trp2)-(T)'-(H)'-(T)''_Design7]	96.2
GCAUGAUAGUAAGGAUAUAGAUAAUCCUUAUAUAUAUCGAGUGAUGUUCGAUGUGCCAAGGUACAUCUAGAAGGUACUGUAAGGU [Same State FMN B GF 17]	288
AUAUAAGUCGGAGGAUAUCCAGUGAUGUUAUGUUGUGAUGUUUAGUGAUGUUAGGCAUCAGUGAAGGGAGAAGGCCGUAAGUGAU [APPLE]	53.3
AUGUCUAAUACGGCCGCCACUCGAGCAGUGAUGUUGCUCAGUAAUGGUCAUCGUCGUACAUGCCCGAGGACCGGGUAUUGAUUUG [Remain]	122
UGGAUAUAGUGAUGUUAUAUAGAGAUGGAUACCAGCUGAGAGAAUAGCCCUUGGCAGCCGAAAGAAGUAUCAUUAGAGAAGAAUG [ExTheophyl.Aj]	188
AACCACUCGUUACAUCACUAUCGAGUGGAACGAGGACCGGUACGGCCGCCACUCGAAUAGAUGCAGUGAUGUUGCAUCUUGGAAU [KL-SSTryp-A (BrourdMod)4 #dotplot2 strengthened]	141
AAAAGAAAGUCGGCCGCCACUCAACGCAGUGAUGUUGCAAGACAGAAGAGCAGUGAUGUUGCCCAGAGGACCGGGACACAAGGCC [Same State Typtophan B GF 3]	384
